The data set is described as follows: soluble fraction after stress (log2 fold change); higher = more stays soluble; pooled small domains, quantitative proteomics. As to conditions: stress: 75 degC.
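Also: 20 min heating vs room temperature control held 20 min.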

For “HMSQRITYTEFVQMVKDDKVEKVEVGANQYNITPKSDDKTLVKMTYYTGFIKDENLLDLLNKHKVEIDGYI”, the “soluble fraction (log2)” value was -0.792.

On to “HMSQSIGQEKALSIALADAGVQKENALGLEVKGEYDDGQLLYEVEFRAGGVEYEYEVRASDGRIVKAERD”, for which the “soluble fraction (log2)” value stood at 0.0638.

As for “HMSQSMEVLYTDLTDKDAAAIVEKLEEEKIPYQLEDQGTTILVPPGVKYTTRLKLAAEDLPKG”, the “soluble fraction (log2)” value is 0.0723.

Regarding “HMSQYVPDPVLNAALVGYLDFRKQAGKPMTDYSIRLLLVDLAKLSGNPQEQAAILDQSTKNNWIGVYALG”, the “soluble fraction (log2)” value was -3.04.

For the sequence “HMSRAARLALDALPDEWAQFAESRGLAGSAMAETWETFRDYWQAQPGQKGVKADWAATWRNWVRRETQNRG”, the “soluble fraction (log2)” value was -0.378.

Regarding “HMSRDYKTELQERLQVNGPVKIEYQVIAEDESKPSFKVQLLVNDKKISEGQGRNKKAAEQQAAQAAL”, the “soluble fraction (log2)” value is 0.0103.

As for “HMSREEFLTELRKALQGRVSQQTVNDNLRYYEEYILTESHKGKTEAEVIAELGNPRLLAKSIIDAENAT”, the “soluble fraction (log2)” value turned out to be 0.0701.

“HMSRESNISTGRQLLEAQLPTWGYKKVEDIPSKQMKTALDAFNYKDVESLLQGLGEGSVALTTALRRLMP”: the “soluble fraction (log2)” value is -0.095.

Turning to “HMSRFLEGILQRRAGGKNYFVPDDGSNPIFIADRNSAGAANGDRVRIAQFARRPRSGPEGEVVEILKRAK”, the “soluble fraction (log2)” value is -0.0772.

Consider “HMSRGAIVTGTVIEKNQSGIYVDLGYKSDGIVPIEEFDGEESKYNVGDQIRVYVKKVDDGHGQLML”, for which the “soluble fraction (log2)” value was 0.142.

With “HMSRGTRIDPNWQPSPEDRALARAEGFSDPEIDREALQFRDYWLGASGSNAVKLDWSATWRNWVRRAATNF”, the “soluble fraction (log2)” value was -0.396.

On to “HMSRKERERSQHRRDILAAGEKIFAQKGYFNATIEEIAREAEFSVGTIYNFFSNKETLYQEIIRSI”, for which the “soluble fraction (log2)” value is -0.418.

Consider “HMSRLQDAELQAQIDKMAGAMQLRDIPVYVQDIPTINGLAAPDGRVFITQGFIDKYKLGEVSAGEIASVI”, for which the “soluble fraction (log2)” value turned out to be 0.29.

Turning to “HMSRPLISNMLRLLNLPPTVQRKVAAGVISAGHARALLGLNDEKEIEKLANRIVAEGLSVRATEEIVAIA”, the “soluble fraction (log2)” value is -1.62.

For “HMSRWHEFLNKSEDGMKELDEQNQKVLTLLILQRFYQTPFQAKEDEEFYREFFERLSSVNEILG”, the “soluble fraction (log2)” value is -0.468.

For “HMSSAYLTVRGIDIDVIYKDIKNLHIAVYPPFGRVRVAAPSHLDDDQVRLAVIQRLTWIKRQRERLRST”, the “soluble fraction (log2)” value was -1.62.

As to “HMSSDEAEYKLLLGQEGVAKSPLRPSGVVDFSGRRLDVQTLGDFIESGETVVVKQVNGHRVLVERK”, the “soluble fraction (log2)” value worked out at 0.135.

Regarding “HMSSDEEQLATLTRLLQKQEQIIQTLGPRNPMVSLQQYANTITKVIEMAGFKDTSQFINSQIP”, the “soluble fraction (log2)” value is 0.0951.

Turning to “HMSSDLESVIGTHSQEANFALRSWGWIQPDETWKNLRPDQVSQILERANEFMAKAIESFANAQSE”, the “soluble fraction (log2)” value is -0.141.

Take “HMSSDLLGVRVRRARARAGLTRRRLSLLSGVSERFLAQLESGQGNISIVLIRRVAAALGAELVELIGS”: the “soluble fraction (log2)” value is -0.555.

Take “HMSSEDTQSRDRARKELSNEMSRIMKRYGLDYQPRDNADDIMNRLKAAGADENTLAYVQEKLK”: the “soluble fraction (log2)” value was -0.0442.

In the case of “HMSSEITYDKFIEMVDKDQVKEVTLQSGVLTVVPKIQKSYYQNASYKVNQMEDVDALTKRLEGTGIVFHY”, the “soluble fraction (log2)” value was 0.322.

On to “HMSSEITYDKFIEMVEEGNVKEVTLQSDTLTIKPKHQDSAFSEKEYYTRQMESADQLTERLEGTGIEFHS”, for which the “soluble fraction (log2)” value worked out at 0.119.

Regarding “HMSSEQRSVLFPNLAETDKVAVIEALMAAGVNARVDSASGRVTVPSGDYYNSRAILAAQGLPTS”, the “soluble fraction (log2)” value stood at 0.0148.

Turning to “HMSSETTVPAVVGIKEDKARQLASEQGLRLRVKSREESADVEEGIIISQDPNSNTKVKKGDEIEVVVS”, the “soluble fraction (log2)” value was 0.102.

With “HMSSFSESFHKALNNLDDKHKSVFSLRHFEGFSMKEIAETLNINEGTVKSRLFYATKTLAGALKEF”, the “soluble fraction (log2)” value is -3.45.

With “HMSSGKTGTITLQPKQTVYGITKQYKISEADLRKLNPQLDSNLKIGDKITLPLDNIQRYSDSSSNVAQT”, the “soluble fraction (log2)” value stood at 0.0568.

Consider “HMSSGLLTVQEQRILEHLANGERNGDIAGRLHISEGTVKWHLHNMYRKLDAATRTQAVARARALRL”, for which the “soluble fraction (log2)” value is 0.36.

Take “HMSSIGERISDVRKARGYTQDQLAERIHVSRQTISHWENERALPDFESIKQLSQVLGYDFSS”: the “soluble fraction (log2)” value was -0.123.

“HMSSIHQDAKQQLHEYIRTYIQPLMRAGKQVTVWDIIGHVTIRKPKLVQKIGTQQLINMVQDLLE”: the “soluble fraction (log2)” value was -0.624.

For “HMSSKSDQLYLQLRRRISAMKDGEPFPTVRQLMTEYQVSQSTVTPAINQLKEKGLIEAYVGRGSFVSKK”, the “soluble fraction (log2)” value was -0.657.

For “HMSSKTKVEDLGLSTRTLNALIGGSIKTAGGLTRKSESDLLSLDGLGEKGITEIKEALENIGLSLK”, the “soluble fraction (log2)” value stood at 0.103.

For “HMSSLKKISIDELSPGMYVHSIVEQKGSVKIKSQGKVLKQAVVDALRKRGVKTLLIDLSKQFNPETGEP”, the “soluble fraction (log2)” value is -0.985.

As to “HMSSLTPRETEVLSRMAQGDANTSIAERLVITEKAVQKHINAIFAKLGLAEEPTSARRVLAVLAFLR”, the “soluble fraction (log2)” value is -0.539.

In the case of “HMSSLTQREYEIAELVADGLSNKAIAAELSISHTTAARHVANIMNKLGFNSRSQIAAWVADRAQG”, the “soluble fraction (log2)” value is 0.0373.

The values are drawn from the domain aggregation screens of Martell et al. (2025).
